Source: patent publication US20210155689A1 (SHANGHAI PHARMAEXPLORER, published 2021)
Where “and” joins values, the source holds several entries; their conditions need not be identical. Equal values may be shown once.

T1: human LAG-3 ECD (antigen protein of the affinity test) (human, UniProt P18627 23-450)
T1 sequence: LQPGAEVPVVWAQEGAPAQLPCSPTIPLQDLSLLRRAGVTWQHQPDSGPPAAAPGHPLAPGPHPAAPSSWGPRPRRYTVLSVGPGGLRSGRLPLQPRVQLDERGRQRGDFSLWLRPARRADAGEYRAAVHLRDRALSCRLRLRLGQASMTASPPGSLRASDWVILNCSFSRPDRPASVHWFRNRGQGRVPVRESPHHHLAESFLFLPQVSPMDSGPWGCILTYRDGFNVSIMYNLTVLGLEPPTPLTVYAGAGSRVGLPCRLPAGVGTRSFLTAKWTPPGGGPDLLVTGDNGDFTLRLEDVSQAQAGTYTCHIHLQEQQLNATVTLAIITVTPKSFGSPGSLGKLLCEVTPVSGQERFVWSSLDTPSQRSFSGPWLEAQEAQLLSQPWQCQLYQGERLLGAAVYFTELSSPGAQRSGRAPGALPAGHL

T2: human LAG-3 ECD (antigen protein of the affinity test) (human, UniProt P18627 23-450)
T2 sequence: T1 sequence

B1: 556F6B8-3 (D→E) hot-spot mutated humanized antibody (antibody, V domains shown)
VH: QVQLQESGPGLVKPSETLSLTCTVSGFSLIKYGVHWIRQPPGKGLEWIGVIWRGGITDYNAAFMSRVTISKDTSKSQVSLKLSSVTAADTAVYYCARWEGPLAMDYWGQGTTVTVSS
VL: DIQLTQSPSFLSASVGDRVTITCKASQDVGTTVAWYQQKPGKAPKLLIYWASTRHTGVPSRFSGSGSGTEFTLTISSLQPEDFATYYCQQYSSYPYTFGQGTKLEIK
B2: 556F6B8-3 (D→E) (humanized antibody with hot spot mutation) (antibody, human IgG4, V domains shown)
VH: B1 VH
VL: B1 VL
notes: made as the humanized antibodies (human IgG4 constant region); also called humanized antibody 556F6B8-3 with hot spot mutation
B3: 405B8H3-1 (D→E) (humanized antibody with hot spot mutation) (antibody, human IgG4, V domains shown)
VH: QVQLVQSGAEVKKPGASVKVSCKASGYTFTDYEMHWVRQAPGQGLEWMGATDPETGNSAYNQKFKGRVTMTRDTSTSTVYMELSSLRSEDTAVYYCISTGWNDWGQGTTVTVSS
VL: DIQMTQSPSSLSASVGDRVTITCKASQDINSYLSWFQQKPGKAPKSLIYRADRLLEGVPSRFSGSGSGTDFTLTISSLQPEDFATYYCLQYDEFPYTFGQGTKLEIK
notes: made as the humanized antibodies (human IgG4 constant region); also called 405B81-13-1 (D→E); hot-spot mutated antibody
B4: 553G8G8 (mouse antibody purified from hybridoma) (antibody, V domains shown)
VH: RVQLKQSGPGLVQPSQSLSITCTVSGFSLIKYGVHWVRQSPGEGLEWLGVIWRGGITDYNAAFMSRLSITKDNSKSQVFFKMNSLQADDTAIYYCAKWDGPLAMDYWGQGTSVTVSS
VL: DVQMIQSPSSLSASLGDMVTMTCQASQGTNINLNWFQQKPGKAPKLLIYGASNLEDGVPSRFSGSRYGTDFTLTISSLEDEDMATYFGLQHSYLPLTFGAGTKLELK
B5: 556F6B8 mouse-human chimeric antibody (antibody, V domains shown)
VH: B4 VH
VL: DIVMTQSHKFLSTSVGDRVSITCKASQDVGTTVAWYQQKPGQSPKLLIYWASTRHTGVPDRFTGSGSGTDFTLTISNVQSEDLADYFCQQYSSYPYTFGGGTKLEIK
notes: also called mAb123-556F6B8

Columns and labels:
[1] = biological target: monkey LAG-3 (full length, on the cell surface) (monkey); assay: FACS, HEK293-cLAG-3; 0.000 nM
Chain of monkey LAG-3 (full length, on the cell surface) (monkey) (P18627 other isoform, or with tags, fused parts or gaps limits assumed): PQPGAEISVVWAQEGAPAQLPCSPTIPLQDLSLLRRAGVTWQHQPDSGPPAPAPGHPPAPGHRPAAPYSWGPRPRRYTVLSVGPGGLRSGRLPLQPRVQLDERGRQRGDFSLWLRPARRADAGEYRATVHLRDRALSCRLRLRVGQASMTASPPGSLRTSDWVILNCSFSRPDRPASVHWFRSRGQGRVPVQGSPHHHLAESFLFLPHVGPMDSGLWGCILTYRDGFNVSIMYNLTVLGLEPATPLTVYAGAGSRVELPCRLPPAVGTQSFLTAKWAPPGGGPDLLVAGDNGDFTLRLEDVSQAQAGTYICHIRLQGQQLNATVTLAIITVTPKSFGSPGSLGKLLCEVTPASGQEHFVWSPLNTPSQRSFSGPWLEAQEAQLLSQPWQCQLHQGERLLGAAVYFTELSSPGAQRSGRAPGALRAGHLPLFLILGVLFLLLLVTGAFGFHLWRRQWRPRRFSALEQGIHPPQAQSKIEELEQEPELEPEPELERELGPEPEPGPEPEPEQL

[2] = biological target: human LAG-3 protein with hFc tag (hLAG-3-hFc protein) (human) (UniProt P18627); assay: FACS, blocks LAG-3-hFc binding to MHC II on Raji; 200.000 nM
[3] = biological target: human LAG-3 (full length, on the cell surface) (human) (UniProt P18627); assay: FACS, HEK293-hLAG-3; 0.320 nM
[4] = biological target: monkey LAG-3 (full length, on the cell surface) (monkey); assay: FACS, HEK293-cLAG-3; 0.013 nM
[5] = biological target: human LAG-3 protein with hFc tag (hLAG-3-hFc protein) (human) (UniProt P18627); assay: FACS, blocks LAG-3-hFc binding to MHC II on Raji; 7.407 nM
[6] = biological target: monkey LAG-3 (full length, on the cell surface) (monkey); assay: FACS, HEK293-cLAG-3; 8.000 nM
[7] = biological target: human LAG-3 protein with hFc tag (hLAG-3-hFc protein) (human) (UniProt P18627); assay: FACS, blocks LAG-3-hFc binding to MHC II on Raji; 0.000 nM
[8] = biological target: human LAG-3 (full length, on the cell surface) (human) (UniProt P18627); assay: FACS, HEK293-hLAG-3; 1.600 nM
[9] = biological target: monkey LAG-3 (full length, on the cell surface) (monkey); assay: FACS, HEK293-cLAG-3; 40.000 nM
[10] = biological target: monkey LAG-3 (full length, on the cell surface) (monkey); assay: FACS, HEK293-cLAG-3; 200.000 nM
[11] = biological target: human LAG-3 protein with hFc tag (hLAG-3-hFc protein) (human) (UniProt P18627); assay: FACS, blocks LAG-3-hFc binding to MHC II on Raji; 22.222 nM
[12] = biological target: monkey LAG-3 (full length, on the cell surface) (monkey); assay: FACS, HEK293-cLAG-3; 0.064 nM
[13] = biological target: human LAG-3 protein with hFc tag (hLAG-3-hFc protein) (human) (UniProt P18627); assay: FACS, blocks LAG-3-hFc binding to MHC II on Raji; 0.274 nM
[14] = biological target: human LAG-3 protein with hFc tag (hLAG-3-hFc protein) (human) (UniProt P18627); assay: FACS, blocks LAG-3-hFc binding to MHC II on Raji; 66.667 nM
[15] = biological target: human LAG-3 (full length, on the cell surface) (human) (UniProt P18627); assay: FACS, HEK293-hLAG-3; 8.000 nM
[16] = biological target: human LAG-3 protein with hFc tag (hLAG-3-hFc protein) (human) (UniProt P18627); assay: FACS, blocks LAG-3-hFc binding to MHC II on Raji; 2.469 nM
[17] = biological target: human LAG-3 (full length, on the cell surface) (human) (UniProt P18627); assay: FACS, HEK293-hLAG-3; 40.000 nM
[18] = biological target: human LAG-3 (full length, on the cell surface) (human) (UniProt P18627); assay: FACS, HEK293-hLAG-3; 200.000 nM
[19] = biological target: monkey LAG-3 (full length, on the cell surface) (monkey); assay: FACS, HEK293-cLAG-3; 0.320 nM
[20] = biological target: human LAG-3 (full length, on the cell surface) (human) (UniProt P18627); assay: cell-based or functional assay
Target sequence in this assay (P18627 23-525 limits assumed): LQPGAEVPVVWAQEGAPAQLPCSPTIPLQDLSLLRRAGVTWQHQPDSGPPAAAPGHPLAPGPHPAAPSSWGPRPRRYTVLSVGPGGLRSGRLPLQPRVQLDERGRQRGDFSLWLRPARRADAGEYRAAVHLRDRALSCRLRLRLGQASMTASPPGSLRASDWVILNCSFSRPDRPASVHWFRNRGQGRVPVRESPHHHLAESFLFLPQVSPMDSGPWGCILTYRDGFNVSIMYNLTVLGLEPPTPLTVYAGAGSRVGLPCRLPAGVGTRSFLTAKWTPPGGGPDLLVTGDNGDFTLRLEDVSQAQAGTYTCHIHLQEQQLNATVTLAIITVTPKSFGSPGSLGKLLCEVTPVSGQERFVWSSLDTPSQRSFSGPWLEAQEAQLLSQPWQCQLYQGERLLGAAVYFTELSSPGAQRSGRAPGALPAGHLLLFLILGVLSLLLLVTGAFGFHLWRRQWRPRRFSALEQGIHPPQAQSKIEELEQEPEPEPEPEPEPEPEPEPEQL

[21] = biological target: monkey LAG-3 (full length, on the cell surface) (monkey); assay: FACS, HEK293-cLAG-3; 1.600 nM
[22] = biological target: human LAG-3 (full length, on the cell surface) (human) (UniProt P18627); assay: FACS, HEK293-hLAG-3; 0.064 nM
[23] = biological target: human LAG-3 protein with hFc tag (hLAG-3-hFc protein) (human) (UniProt P18627); assay: FACS, blocks LAG-3-hFc binding to MHC II on Raji; 0.823 nM
[24] = biological target: human LAG-3 (full length, on the cell surface) (human) (UniProt P18627); assay: FACS, HEK293-hLAG-3; 0.000 nM
[25] = biological target: human LAG-3 (full length, on the cell surface) (human) (UniProt P18627); assay: FACS, HEK293-hLAG-3; 0.013 nM
[26] = biological target: T1, human LAG-3 ECD (antigen protein of the …); assay: SPR (CM5 chip), antibody captured by anti-human Fc IgG, antigen protein in flow, 1:1 model
Protocol: (§1) First, anti-human Fc IgG was immobilized on the surface of the CM5 chip to 6000-10000 RU by amino coupling method, with FC1 as the reference channel. The coupling process was as follows: a freshly prepared 1:1 mixture of 50 mM NHS and 200 mM EDC was activated for 7 minutes, then injected with 10-50 ug/ml anti-human Fc IgG diluted in 10 mM sodium acetate ph5.0 buffer. The remaining activated sites were blocked with 1M ethanolamine. Then, HBS-EP+ buffer was used to dilute the antibody to be tested to 5 ug/ml (adjustable according to the capture level) and the antibodies were captured on the chip at a flow rate of 10 ul/min to obtain a response value of about 100˜300 RU. Then the antigen protein was diluted to 100 nM (the highest concentration was tentatively 100 nM), and flew through the chip surface at a flow rate of 30 ul/min. If enough signal value was obtained, the antigen-protein was diluted by several concentration gradients, and flew through the chip surface respectively. At the end of each cycle, the chip surface was regenerated with 10 mM Glycine at pH 1.5. The kinetic rate constant needed to be subtracted from the blank control, and the data was fitted with the global fit analysis method 1:1 combination model. The dissociation equilibrium rate constant (KD) was calculated according to the following formula: KD=kd/ka.
(§2) The method was the same as that in Example 5.

[27] = biological target: T2, human LAG-3 ECD (antigen protein of the …); assay: SPR, antibody captured by anti-human Fc IgG on CM5; ratio of KD values
Protocol: as §1, §2

[28] = biological target: human LAG-3 (full length, on the cell surface) (human) (UniProt P18627); assay: cell-based or functional assay; remark: listed apart in the source

Row | Molecule | Mean fluorescence intensity [1] | Inhibition rate (%) [2] | Mean fluorescence intensity [3] | Mean fluorescence intensity [4] | Inhibition rate (%) [5] | Mean fluorescence intensity [6] | Inhibition rate (%) [7] | Mean fluorescence intensity [8] | Mean fluorescence intensity [9] | Mean fluorescence intensity [10] | Inhibition rate (%) [11] | Mean fluorescence intensity [12] | Inhibition rate (%) [13] | Inhibition rate (%) [14] | Mean fluorescence intensity [15] | Inhibition rate (%) [16] | Mean fluorescence intensity [17] | Mean fluorescence intensity [18] | Mean fluorescence intensity [19] | Mean fluorescence intensity [21] | also measured
1 | mIgG1 (murine IgG control) (antibody) | 3.4 MFI and 4 MFI | 12.8% and -0.9% | 2.7 MFI and 3.8 MFI | 3.5 MFI and 4 MFI | 3.4% and 2.8% | 3.3 MFI and 4.1 MFI | 8.2% and -11.5% | 2.7 MFI and 3.9 MFI | 3.3 MFI and 4.1 MFI | 3.6 MFI and 4.2 MFI | 2.8% and 4.2% | 3.2 MFI and 4 MFI | 5.3% and -3.9% | 6.7% and 7.4% | 2.9 MFI and 3.9 MFI | 13.7% and 1.8% | 2.8 MFI and 4 MFI | 2.8 MFI and 4.2 MFI | 3.3 MFI and 4 MFI | 3.2 MFI and 4 MFI | mIL-2 (pg/mL), antigen-specific T lymphocyte stimulation test; control IgG 0.016 ug/mL [20]: 177 pg/mL and 104 pg/mL; mIL-2 (pg/mL), antigen-specific T lymphocyte stimulation test; control IgG 0.08 ug/mL [20]: 175 pg/mL and 89.2 pg/mL; mIL-2 (pg/mL), antigen-specific T lymphocyte stimulation test; control IgG 2 ug/mL [20]: 174 pg/mL and 84.1 pg/mL; mIL-2 (pg/mL), antigen-specific T lymphocyte stimulation test; control IgG 4 ug/mL (so in the source) [20]: 145 pg/mL and 84.2 pg/mL; mIL-2 (pg/mL), antigen-specific T lymphocyte stimulation test; control IgG 10 ug/mL [20]: 169 pg/mL and 108 pg/mL; Mean fluorescence intensity [22]: 2.9 MFI and 3.8 MFI; Inhibition rate (%) [23]: 13.8% and 4%; Mean fluorescence intensity [24]: 3 MFI and 3.8 MFI; Mean fluorescence intensity [25]: 2.9 MFI and 3.8 MFI
2 | B1 |  |  |  |  |  |  |  |  |  |  |  |  |  |  |  |  |  |  |  |  | Kd [26]: 33.5 nM; koff [26]: 0.00384 s⁻¹; kon [26]: 115000 M⁻¹ s⁻¹
3 | B2 |  |  |  |  |  |  |  |  |  |  |  |  |  |  |  |  |  |  |  |  | fold reduction of affinity against the corresponding chimeric antibody [27]: 12.5 fold
4 | B3 |  |  |  |  |  |  |  |  |  |  |  |  |  |  |  |  |  |  |  |  | fold increase of affinity against the chimeric antibody 405B8H3 [27]: 1.5 times
5 | B4 | 3.2 MFI | 95.9% | 17.1 MFI | 3.5 MFI | 93.8% | 77.7 MFI | -12.4% | 44.4 MFI | 112 MFI | 128 MFI | 95.8% | 4.2 MFI | 8.1% | 96% | 68.4 MFI | 45% | 79.4 MFI | 81 MFI | 8.8 MFI | 28.1 MFI | mIL-2 (pg/mL), antigen-specific T lymphocyte stimulation test; antibody 0.016 ug/mL [28]: 98.2 pg/mL; mIL-2 (pg/mL), antigen-specific T lymphocyte stimulation test; antibody 0.08 ug/mL [28]: 134 pg/mL; mIL-2 (pg/mL), antigen-specific T lymphocyte stimulation test; antibody 2 ug/mL [28]: 251 pg/mL; mIL-2 (pg/mL), antigen-specific T lymphocyte stimulation test; antibody 10 ug/mL [28]: 352 pg/mL; Mean fluorescence intensity [22]: 7 MFI; Inhibition rate (%) [23]: 15.2%; Mean fluorescence intensity [24]: 2.7 MFI; Mean fluorescence intensity [25]: 3.9 MFI
6 | B5 |  |  |  |  |  |  |  |  |  |  |  |  |  |  |  |  |  |  |  |  | Kd [26]: 2.68 nM; koff [26]: 0.000433 s⁻¹; kon [26]: 162000 M⁻¹ s⁻¹
